Measured values published in publication PMC4211651.

Target: native porcine cardiac thin filaments (F-actin plus regulatory proteins, troponin, and tropomyosin) (porcine) (UniProt P42639)
Experiment: co-sedimentation

Kd [µM]	Substance
2.2	human cardiac myosin binding protein-C N-terminal domains C0C1 (domain or fragment)
2.2	mouse cardiac myosin binding protein-C N-terminal domains C0C1 (domain or fragment)
